# Patent publication US20190106460A1 (published 2019)
# Starred links: 1 amine or outer side, 2 acyl side, 3 side chain; linkers in the order of their positions; H or OH if unused. Non-standard residues stand in square brackets, D forms with d. *: point of attachment. 2,4,6‑trimethylbenzoyl = Cc1cc(C)c(C(=O)*)c(C)c1; 4‑(Br)‑2‑(Me)PhSO2 = Cc1cc(Br)ccc1S(=O)(=O)*; 4‑(i-Pr)PhSO2 = CC(C)c1ccc(S(=O)(=O)*)cc1; Benzoyl(4-tBu) = CC(C)(C)c1ccc(C(=O)*)cc1; 4‑(n-Pr)PhSO2 = CCCc1ccc(S(=O)(=O)*)cc1; Phe(3-F) = N[C@@H](Cc1cccc(F)c1)C(=O)O; 1Nal = N[C@@H](Cc1cccc2ccccc12)C(=O)O; Benzoyl(4-Br) = O=C(c1ccc(Br)cc1)*; 2Naphthoyl = O=C(c1ccc2ccccc2c1)*; Benzoyl(4-Me) = Cc1ccc(C(=O)*)cc1; Brosyl = O=S(=O)(c1ccc(Br)cc1)*; Suc = O=C(CCC(=O)[*:2])[*:1]; Tos = Cc1ccc(S(=O)(=O)*)cc1; Propionyl = CCC(=O)*; Bz = O=C(c1ccccc1)*; Ahx = NCCCCCC(=O)O; Moc = COC(=O)*
# B1: Ts-dEGF(3F)WE-NH2 (peptide)
# peptide: Tos-[dD]EG[Phe(3-F)]WE-NH2
# SMILES: Cc1ccc(S(=O)(=O)N[C@H](CC(=O)O)C(=O)N[C@@H](CCC(=O)O)C(=O)NCC(=O)N[C@@H](Cc2cccc(F)c2)C(=O)N[C@@H](Cc2c[nH]c3ccccc23)C(=O)N[C@@H](CCC(=O)O)C(N)=O)cc1
# notes: also called UBP021
# B2: MeO(CO)-dEGF(3F)WE-NH2 (peptide)
# peptide: Moc-[dD]EG[Phe(3-F)]WE-NH2
# SMILES: COC(=O)N[C@H](CC(=O)O)C(=O)N[C@@H](CCC(=O)O)C(=O)NCC(=O)N[C@@H](Cc1cccc(F)c1)C(=O)N[C@@H](Cc1c[nH]c2ccccc12)C(=O)N[C@@H](CCC(=O)O)C(N)=O
# notes: also called UBP020
# B3: Ac-dEGF(3F)1NalE-NH2 (peptide)
# peptide: Ac-[dD]EG[Phe(3-F)][1Nal]E-NH2
# SMILES: CC(=O)N[C@H](CC(=O)O)C(=O)N[C@@H](CCC(=O)O)C(=O)NCC(=O)N[C@@H](Cc1cccc(F)c1)C(=O)N[C@@H](Cc1cccc2ccccc12)C(=O)N[C@@H](CCC(=O)O)C(N)=O
# notes: also called UBP016
# B4: Suc-EGFFE-NH2 (peptide)
# peptide: Suc-EGFFE-NH2
# SMILES: NC(=O)[C@H](CCC(=O)O)NC(=O)[C@H](Cc1ccccc1)NC(=O)[C@H](Cc1ccccc1)NC(=O)CNC(=O)[C@H](CCC(=O)O)NC(=O)CCC(=O)O
# notes: also called UBP002
# Molecular target: Skp2 (UniProt Q13309 1-424, limits assumed)
# Sequence (Q13309 whole entry): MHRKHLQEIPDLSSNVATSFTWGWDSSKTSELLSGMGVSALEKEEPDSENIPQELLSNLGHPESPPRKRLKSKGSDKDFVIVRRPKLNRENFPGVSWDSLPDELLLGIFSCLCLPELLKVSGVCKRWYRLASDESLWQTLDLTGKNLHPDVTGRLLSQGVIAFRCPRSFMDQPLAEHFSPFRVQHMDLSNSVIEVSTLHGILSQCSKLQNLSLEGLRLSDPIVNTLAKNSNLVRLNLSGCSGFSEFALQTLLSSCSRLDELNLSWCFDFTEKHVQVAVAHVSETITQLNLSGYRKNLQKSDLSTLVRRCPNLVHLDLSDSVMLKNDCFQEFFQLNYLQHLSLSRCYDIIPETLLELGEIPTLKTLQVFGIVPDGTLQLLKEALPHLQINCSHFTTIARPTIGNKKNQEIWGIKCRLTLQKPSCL
# Assay: cell-based or functional assay
Binder,% Inhibition Skp2 @ 10 µM,% Inhibition Skp2 @ (100 µM)
Propionyl-[dD]EG[Phe(3-F)]WE-NH2 (also called UBP019) [Et(CO)-dEGF(3F)WE-NH2],1%,10%
B1,19%,25%
Ac-[dD]EG[Phe(3-F)]WE-NH2 (also called UBP017) [Ac-dEGF(3F)WE-NH2],10%,27%
B2,0%,16%
Bz-[dD]EG[Phe(3-F)]WE-NH2 (also called UBP018) [Bz-dEGF(3F)WE-NH2],0%,0%
B3,0%,7%
B4,14%,0%

# Molecular target: Fbw7 (UniProt Q969H0 263-707, limits assumed)
# Sequence (Q969H0 263-707 limits assumed): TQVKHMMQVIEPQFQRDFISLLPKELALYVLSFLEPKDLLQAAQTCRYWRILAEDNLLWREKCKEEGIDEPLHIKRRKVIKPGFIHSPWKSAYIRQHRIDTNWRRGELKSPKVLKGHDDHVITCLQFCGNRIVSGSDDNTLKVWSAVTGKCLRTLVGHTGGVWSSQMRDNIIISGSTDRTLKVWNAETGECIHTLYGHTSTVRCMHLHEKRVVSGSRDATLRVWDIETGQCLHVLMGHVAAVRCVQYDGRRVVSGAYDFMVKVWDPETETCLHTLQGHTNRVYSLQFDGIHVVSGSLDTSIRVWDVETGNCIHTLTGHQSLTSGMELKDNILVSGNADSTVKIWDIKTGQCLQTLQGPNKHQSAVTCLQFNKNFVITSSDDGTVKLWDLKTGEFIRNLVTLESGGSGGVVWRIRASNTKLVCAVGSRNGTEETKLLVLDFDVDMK
# Assay: cell-based or functional assay
Binder,% Inhibition Fbw7 @ 10 µM,% Inhibition Fbw7 @ (100 µM)
Propionyl-[dD]EG[Phe(3-F)]WE-NH2 (also called UBP019) [Et(CO)-dEGF(3F)WE-NH2],0%,10%
B1,9%,0%
Ac-[dD]EG[Phe(3-F)]WE-NH2 (also called UBP017) [Ac-dEGF(3F)WE-NH2],3%,0%
B2,6%,8%
Bz-[dD]EG[Phe(3-F)]WE-NH2 (also called UBP018) [Bz-dEGF(3F)WE-NH2],0%,5%
B3,3%,8%
B4,0%,0%

# Molecular target: T1, βTrCP (tag cleaved and complexed with Skp1) (UniProt Q9Y297 175-605; P63208 1-163)
# T1 construct: Protein of the FP assay (0.035 µM); also called Beta Transducin repeat-containing protein; βTrCP/Skp1
# Assay: FP competition vs fluorescein-IκB peptide
row,Binder,IC50
1,Propionyl-[dD]EG[Phe(3-F)]WE-NH2 (also called UBP019) [Et(CO)-dEGF(3F)WE-NH2],145 nM
2,B1,29 nM
3,Ac-[dD]EG[Phe(3-F)]WE-NH2 (also called UBP017) [Ac-dEGF(3F)WE-NH2],102 nM
4,B2,76 nM
5,Bz-[dD]EG[Phe(3-F)]WE-NH2 (also called UBP018) [Bz-dEGF(3F)WE-NH2],173 nM
6,B3,112 nM
7,{4‑(PhO)PhSO2}-[dD]EG[Phe(3-F)]WE-NH2 [4-(PhO)PhSO2-dEG-F(3F)-WE-NH2],63 nM

# Molecular target: T1, βTrCP (tag cleaved and complexed with …)
# Assay: FP competition vs fluorescein-IκB peptide
# Remark: another data set of the same source
row,Binder,IC50
1,Propionyl-[dD]EG[Phe(3-F)]WE-NH2 (also called UBP019) [Et(CO)-dEGF(3F)WE-NH2],145 nM
2,B1,29 nM
3,Ac-[dD]EG[Phe(3-F)]WE-NH2 (also called UBP017) [Ac-dEGF(3F)WE-NH2],102 nM
4,B2,76 nM
5,Bz-[dD]EG[Phe(3-F)]WE-NH2 (also called UBP018) [Bz-dEGF(3F)WE-NH2],173 nM
6,B3,112 nM
7,B4,3180 nM

# Molecular target: T2, HisβTrCP/Skp1 and HisβTrCP/GSTSkp1 (immobilised on NTA Biacore chip) (UniProt Q9Y297 175-605; P63208 1-163)
# T2 construct: SPR: KD values from both surfaces (with or without the GST moiety) were averaged to give the apparent KD; also called βTrCP surfaces
# T2 sequence (Q9Y297 175-605, chain 1 of 2): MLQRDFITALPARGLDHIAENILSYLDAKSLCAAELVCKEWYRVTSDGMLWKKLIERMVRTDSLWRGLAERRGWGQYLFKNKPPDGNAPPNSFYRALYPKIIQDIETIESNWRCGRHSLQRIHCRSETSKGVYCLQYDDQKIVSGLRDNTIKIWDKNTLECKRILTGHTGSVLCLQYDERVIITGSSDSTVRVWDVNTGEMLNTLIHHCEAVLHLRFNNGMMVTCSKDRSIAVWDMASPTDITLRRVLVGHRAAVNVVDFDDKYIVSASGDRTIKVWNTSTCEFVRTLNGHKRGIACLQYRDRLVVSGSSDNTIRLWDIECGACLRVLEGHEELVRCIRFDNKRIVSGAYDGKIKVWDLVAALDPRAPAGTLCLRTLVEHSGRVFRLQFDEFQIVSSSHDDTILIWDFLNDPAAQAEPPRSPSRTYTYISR
# T2 sequence (P63208 whole entry, chain 2 of 2): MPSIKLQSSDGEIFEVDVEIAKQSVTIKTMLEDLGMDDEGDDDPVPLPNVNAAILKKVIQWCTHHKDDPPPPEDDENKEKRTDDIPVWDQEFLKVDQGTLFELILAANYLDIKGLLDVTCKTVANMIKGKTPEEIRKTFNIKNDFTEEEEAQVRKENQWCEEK
# Assay: SPR, Biacore T200, βTrCP/Skp1 immobilised
# Text: As βTrCP was His tagged, an NTA sensor chip was used. This sensor chip has a dextran surface matrix with immobilized nitrilotriacetic acid (NTA) which provides a means of capturing polyHis-tagged proteins through Nickel chelation. It was hoped that addition of Ni⁺ would orient the protein in a specific (and hopefully active) manner as it is covalently immobilised via amine coupling. Addition of EDC:NHS (N-ethyl-N′-(3-[…])-carbodiimide:N-hydroxysuccinimide) converts carboxyl groups on the dextran sensor chip surface to succinamide esters which readily form covalent bonds with primary amines. Each chip contains four flow cells (each a separate surface) which means that compounds/peptides can be passed over different forms of βTrCP and a reference surface simultaneously. If binding to βTrCP is occurring, responses should be the same (accounting for differences in density of surface etc) on each surface.
# Small molecule/peptide samples to be assayed for binding to βTrCP surfaces, were provided as 10 mM stocks in 100% DMSO. All samples were tested in running buffer composed of 10 mM HEPES pH 7.4, 150 mM NaCl, 50 μM EDTA, 0.005% p20, and 1% DMSO. Serial dilutions were made using running buffer. Samples were tested over varying concentrations up to a maximum of 100 μM. Two methods of measuring the SPR response were employed: single cycle kinetics which measures the response across different concentrations of sample within a single cycle (no regeneration of surface) and a method that measures the response at a given concentration in each cycle and includes a regeneration wash after each sample injection. The regeneration solution used was the same as running buffer, but included 500 mM NaCl. Data was fitted using Biacore T200 evaluation software. KD values calculated from binding curves from both surfaces (with or without the GST moiety) were averaged to produce apparent KD's for each sample tested.
row,Binder,Kd
1,Propionyl-[dD]EG[Phe(3-F)]WE-NH2 (also called UBP019) [Et(CO)-dEGF(3F)WE-NH2],150 nM
2,B1,190 nM
3,Ac-[dD]EG[Phe(3-F)]WE-NH2 (also called UBP017) [Ac-dEGF(3F)WE-NH2],250 nM
4,B2,53 nM
5,Bz-[dD]EG[Phe(3-F)]WE-NH2 (also called UBP018) [Bz-dEGF(3F)WE-NH2],424 nM
6,B3,590 nM
7,B4,29500 nM

# Molecular target: T3, βTrCP (tag cleaved and complexed with Skp1) (UniProt Q9Y297 175-605; P63208 1-163)
# T3 construct: Protein of the fluorescence polarisation assay, 0.035 µM; also called Beta Transducin repeat-containing protein; βTrCP/Skp1
# Assay: fluorescence polarisation assay; the column head does not say whether IC50 or Ki
# Procedure: Assay components (without compound) were premixed in a microcentrifuge tube and incubated for 1 hour to ensure equilibrium was achieved. Each compound was then added to one tube, mixed by vortexing, and then dispensed into 3 wells of a black 384-well plate and incubated for 30 minutes. Fluorescence polarization was then read (excitation 485 nm, emission 530 nm) using an Analyst-AD from Molecular Devices.
# Binding of the compounds to βTrCP was assessed using a fluorescence polarisation (FP) binding assay. The FP assay is an in vitro binding assay using a fluorescein-tagged IkB peptide at 10 nM to mimic substrate binding to βTrCP, and was performed as described above.
row,Binder,FP Assay /
1,Brosyl-[dD]EG[Phe(3-F)]WE[Ahx]K(Benzoyl(4-Br))-NH2 (Round II CPP; also called UBP093) [4-(Br)PhSO2-dEGF(3F)WE-Ahx-K(CO((4-Br)Ph))-NH2],106 nM
2,{4‑(n-Pr)PhSO2}-[dD]EG[Phe(3-F)]WE[Ahx]K(Benzoyl(4-Me))-NH2 (Round II CPP; also called UBP087) [4-(n-Pr)PhSO2-dEGF(3F)WE-Ahx-K(CO((4-Me)Ph))-NH2],58.3 nM
3,"{4‑(n-Pr)PhSO2}-[dD]EG[Phe(3-F)]WE[Ahx]K(2,4,6‑trimethylbenzoyl)-NH2 (Round II CPP; also called UBP086) [4-(n-Pr)PhSO2-dEGF(3F)WE-Ahx-K(CO((2,4,6-Me3)Ph))-NH2]",29.4 nM
4,{4‑(Br)‑2‑(Me)PhSO2}-[dD]EG[Phe(3-F)]WE[Ahx]K(Benzoyl(4-tBu))-NH2 (Round II CPP; also called UBP094) [4-(Br)-2-(Me)PhSO2-dEGF(3F)WE-Ahx-K(CO((4-tBu)Ph))-NH2],142 nM
5,Brosyl-[dD]EG[Phe(3-F)]WE[Ahx]K(Benzoyl(4-tBu))-NH2 (Round II CPP; also called UBP089) [4-(Br)PhSO2-dEGF(3F)WE-Ahx-K(CO((4-tBu)Ph))-NH2],305 nM
6,{4‑(n-Pr)PhSO2}-[dD]EG[Phe(3-F)]WE[Ahx]K(2Naphthoyl)-NH2 (Round II CPP; also called UBP085) [4-(n-Pr)PhSO2-dEGF(3F)WE-Ahx-K(CO(2-Naphth))-NH2],136 nM
7,{4‑(i-Pr)PhSO2}-[dD]EG[Phe(3-F)]WE[Ahx]K(2Naphthoyl)-NH2 (Round II CPP; also called UBP081) [4-(i-Pr)PhSO2-dEGF(3F)WE-Ahx-K(CO(2-Naphth))-NH2],7.66 nM
8,"Brosyl-[dD]EG[Phe(3-F)]WE[Ahx]K(2,4,6‑trimethylbenzoyl)-NH2 (Round II CPP; also called UBP091) [4-(Br)PhSO2-dEGF(3F)WE-Ahx-K(CO((2,4,6-Me3)Ph))-NH2]",88.3 nM
9,{4‑(n-Pr)PhSO2}-[dD]EG[Phe(3-F)]WE[Ahx]K(Benzoyl(4-Br))-NH2 (Round II CPP; also called UBP088) [4-(n-Pr)PhSO2-dEGF(3F)WE-Ahx-K(CO((4-Br)Ph))-NH2],39.6 nM
10,{4‑(n-Pr)PhSO2}-[dD]EG[Phe(3-F)]WE[Ahx]K(Benzoyl(4-tBu))-NH2 (Round II CPP; also called UBP084) [4-(n-Pr)PhSO2-dEGF(3F)WE-Ahx-K(CO((4-tBu)Ph))-NH2],174 nM
11,Brosyl-[dD]EG[Phe(3-F)]WE[Ahx]K(Benzoyl(4-Me))-NH2 (Round II CPP; also called UBP092) [4-(Br)PhSO2-dEGF(3F)WE-Ahx-K(CO((4-Me)Ph))-NH2],151 nM
12,{4‑(Br)‑2‑(Me)PhSO2}-[dD]EG[Phe(3-F)]WE[Ahx]K(2Naphthoyl)-NH2 (Round II CPP; also called UBP095) [4-(Br)-2-(Me)PhSO2-dEGF(3F)WE-Ahx-K(CO(2-Naphth))-NH2],86.7 nM
13,{4‑(Br)‑2‑(Me)PhSO2}-[dD]EG[Phe(3-F)]WE[Ahx]K(Benzoyl(4-Me))-NH2 (Round II CPP; also called UBP097) [4-(Br)-2-(Me)PhSO2-dEGF(3F)WE-Ahx-K(CO((4-Me)Ph))-NH2],114 nM
14,"{4‑(Br)‑2‑(Me)PhSO2}-[dD]EG[Phe(3-F)]WE[Ahx]K(2,4,6‑trimethylbenzoyl)-NH2 (Round II CPP; also called UBP096) [4-(Br)-2-(Me)PhSO2-dEGF(3F)WE-Ahx-K(CO((2,4,6-Me3)Ph))-NH2]",114 nM
15,Brosyl-[dD]EG[Phe(3-F)]WE[Ahx]K(2Naphthoyl)-NH2 (Round II CPP; also called UBP090) [4-(Br)PhSO2-dEGF(3F)WE-Ahx-K(CO(2-Naphth))-NH2],133 nM
16,{4‑(i-Pr)PhSO2}-[dD]EG[Phe(3-F)]WE[Ahx]K(Benzoyl(4-tBu))-NH2 (Round II CPP; also called UBP080) [4-(i-Pr)PhSO2-dEGF(3F)WE-Ahx-K(CO((4-tBu)Ph))-NH2],73 nM
17,{4‑(Br)‑2‑(Me)PhSO2}-[dD]EG[Phe(3-F)]WE[Ahx]K(Benzoyl(4-Br))-NH2 (Round II CPP; also called UBP098) [4-(Br)-2-(Me)PhSO2-dEGF(3F)WE-Ahx-K(CO((4-Br)Ph))-NH2],92.4 nM
18,"{4‑(i-Pr)PhSO2}-[dD]EG[Phe(3-F)]WE[Ahx]K(2,4,6‑trimethylbenzoyl)-NH2 (Round II CPP; also called UBP082) [4-(i-Pr)PhSO2-dEGF(3F)WE-Ahx-K(CO((2,4,6-Me3)Ph))-NH2]",56.1 nM
19,{4‑(i-Pr)PhSO2}-[dD]EG[Phe(3-F)]WE[Ahx]K(Benzoyl(4-Br))-NH2 (Round II CPP; also called UBP083) [4-(i-Pr)PhSO2-dEGF(3F)WE-Ahx-K(CO((4-Br)Ph))-NH2],36.5 nM
